Target: the molecule itself
Assay: cross-linking; purified protein cross-linked with 0.03% glutaraldehyde, analysed by SDS-PAGE

B1: full-length PARN, recombinant (enzyme, human, UniProt O95453 1-639, looked up)
chain: MEIIRSNFKSNLHKVYQAIEEADFFAIDGEFSGISDGPSVSALTNGFDTPEERYQKLKKHSMDFLLFQFGLCTFKYDYTDSKYITKSFNFYVFPKPFNRSSPDVKFVCQSSSIDFLASQGFDFNKVFRNGIPYLNQEEERQLREQYDEKRSQANGAGALSYVSPNTSKCPVTIPEDQKKFIDQVVEKIEDLLQSEENKNLDLEPCTGFQRKLIYQTLSWKYPKGIHVETLETEKKERYIVISKVDEEERKRREQQKHAKEQEELNDAVGFSRVIHAIANSGKLVIGHNMLLDVMHTVHQFYCPLPADLSEFKEMTTCVFPRLLDTKLMASTQPFKDIINNTSLAELEKRLKETPFNPPKVESAEGFPSYDTASEQLHEAGYDAYITGLCFISMANYLGSFLSPPKIHVSARSKLIEPFFNKLFLMRVMDIPYLNLEGPDLQPKRDHVLHVTFPKEWKTSDLYQLFSAFGNIQISWIDDTSAFVSLSQPEQVKIAVNTSKYAESYRIQTYAEYMGRKQEEKQIKRKWTEDSWKEADSKRLNPQCIPYTLQNHYYRNNSFTAPSTVGKRNLSPSQEEAGLEDGVSGEISDTELEQTDSCAEPLSEGRKKAKKLKRMKKELSPAGSISKNSPATLFEVPDTW
notes: poly(A)-specific ribonuclease (PARN), human, full length; cloned in pET-28a
- binding result: binds

From publication PMC6721724, “The Intrinsically Disordered C-Terminal Domain Triggers Nucleolar Localization and Function Switch of PARN in Response to DNA Damage” (Cells, 2019)
